Key:
EGFR-AP fusion protein = target: T1, EGFR-AP fusion protein (UniProt P00533 25-645); assay: competitive ELISA: antibody pre-mixed with biotinylated HLX05, EGFR-AP added, capture on avidin wells, pNPP, A405; competitor: biotinylated HLX05
T1 construct: treated as one molecule; also called Alkaline phosphatase-conjugated EGFR; not shown: alkaline phosphatase (AP) part
Experimental: Alkaline phosphatase-conjugated EGFR was then added to the pre-mixed solution and pre-incubated for 1 hour at room temperature. The preincubation mix was then added to mictotiter wells coated with avidin. Following a one-hour incubation, all wells were washed with PBST, and pNPP was added to each well. Following a second incubation at 37° C., the reaction was stopped.

[1] = target: T2, EGFR antigen produced in-house (UniProt P00533 25-645, limits assumed); assay: off-rate ELISA in wells coated with EGFR antigen produced in-house, A405
T2 construct: May be the same preparation as m1
Text: The 1-26 heavy chain was selected and used as the basis for generating CDR-H2 libraries for deletion of a glycosylation site. CDR-H2 nucleic acid libraries were generated via PCR, cloned into a phage display vector, and transformed into E. coli to produce a library of phages.

[2] = target: T3, epidermal growth factor receptor (EGFR) (UniProt P00533 25-645, limits assumed); assay: SPR; against HLX05
[3] = target: T3, epidermal growth factor receptor (EGFR); assay: kinetics, method not named for Table 6 (presumably SPR); against HLX05
[4] = target: T3, epidermal growth factor receptor (EGFR); assay: kinetics, method not named for Table 6 (presumably SPR)
[5] = target: T3, epidermal growth factor receptor (EGFR); assay: SPR
[6] = target: T3, epidermal growth factor receptor (EGFR); assay: kinetics of Table 6 (method not named, presumably SPR); lower end tied to 1-26/3-67 by Table 6 (2.2)

B1: 1-26/3-67 (LC/HC) (antibody, V domains shown)
VH: EVQLVESGGGLVQPGGSLRLSCAASGFSLTNYGVHWVRQAPGKGLEWLGVIWSGGNTDYGNEFTSRFTISRDNAKNSLYLQMNSLRAEDTAVYYCARALDYYDYEFAYWGQGTMVTVSS
VL: EIVLTQSPATLSLSPGERATLSCRASQSIGTNIHWYQQKPGQAPRLLIKYASESISGIPARFSGSGSGTDFTLTISSLEPEDFAVYYCQQNNNWPTSFGGGTKVEIK
notes: also called HLX07; HLX07 1-26/3-67
EGFR-AP fusion protein
  IC50 (read off the curve): ~4 µg/mL
[1]
  EC50 (read off the curve): ~0.3 µg/mL
[2]
  Fold difference in KD: 1.2 fold
[3]
  Fold difference in KD: 2.2 fold
[4]
  Kd: 0.111 nM
  koff: 0.000995 s⁻¹
  kon: 8.93e+06 M⁻¹ s⁻¹
[5]
  Kd: 0.109 nM
  koff: 0.000553 s⁻¹
  kon: 5.09e+06 M⁻¹ s⁻¹
[6]
  fold higher affinity than HLX05: 2 to 3 fold

Source: patent US20170218073A1 (HENLIX BIOTECH, published 2017)
